Drawing on PMC3167755, this text covers binding for one sequence.

The data set deals with T1, Fur-His6 (CjFur-His6) (Campylobacter jejuni 81-176) (UniProt P0C631).
T1 sequence: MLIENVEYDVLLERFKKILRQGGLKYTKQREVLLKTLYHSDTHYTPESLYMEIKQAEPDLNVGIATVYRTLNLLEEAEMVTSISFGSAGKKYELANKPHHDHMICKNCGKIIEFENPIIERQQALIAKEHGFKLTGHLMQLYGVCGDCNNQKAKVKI
Kind of data set: EMSA. Conditions: 10 mM Tris-HCl pH 7.5, 1 mM MgCl2, 0.5 mM DTT, 50 mM KCl, 100 uM MnCl2 (omitted where stated), 1 ug poly(dI-dC), 50 ug BSA, 5% glycerol, 20 ul, ~28 fmol DNA …. Background: In EMSA bound probe runs differently from free probe, usually more slowly.

For the sequence “GCTAATGCAAAACTTGAATAAAATACAAGAGCTAAAACAAATTTGCAAAAAAATTTACGCATATTATATCCTTGGTTAAATAAAATTTTCAAAGATAATTTTATTTAAAAAAATAAATAAGCCCAAATTTATTTTTGGGCTTATTGTTATTTTTTAGGATTGAATGCTTGATCAACACTAAAAGGCATTGCTTGATAACCCGTGCCTGAACCGCTAAATTGAATTTGAACCGAAGGCTCCTTAGCACCCCAGTTAAATTCATCAATTTCAGGTTTTGGCTCTCCAAGACTTACACCT (double strand) [dsbA1 promoter region]”, the binding entry is reported as “no binding”.
